The results in this text go back to patent US20150247135A1 (LIGACEPT, published 2015).

Assay [1] has as its target T1, E4-Fc (amino acids 1-497 of ErbB4 joined to the IgG2Fc portion) (UniProt Q15303 26-522; P01859 104-326 = IgG part).
T1 construct: range 1-497;domain: IgG2Fc; Control trap; The 1-497 range counts on mature ErbB4 without the signal peptide; also called ErbB4-IgGFc
Kind of assay: trap coated on 96 well plate, varying HRG1β, detection antibody; Std Error Kd 2.92 nM. The procedure:
(§1) Purified trap molecules were coated on 96 well plates and incubated with either TGFα or HRG1β. Then detection antibodies against TGFα or HRG1β were used to measure the affinity (Kd) and amount of bound ligand (Bmax).
(§2) Traps were coated on 96 well plates and incubated with varying concentrations of either TGFα or HRG1β. Detection antibodies against TGFα or HRG1β were used to measure the affinity (Kd) and amount of bound ligand (Bmax).

The target of assay [2] is T1, E4-Fc (amino acids 1-497 of ErbB4 …). In words: trap coated on 96 well plate, varying HRG1β, detection antibody; Std Error Kd 3.128 nM. The procedure:
as §1, §2

T1 sequence (Q15303 other isoform, or with tags, fused parts or gaps limits assumed): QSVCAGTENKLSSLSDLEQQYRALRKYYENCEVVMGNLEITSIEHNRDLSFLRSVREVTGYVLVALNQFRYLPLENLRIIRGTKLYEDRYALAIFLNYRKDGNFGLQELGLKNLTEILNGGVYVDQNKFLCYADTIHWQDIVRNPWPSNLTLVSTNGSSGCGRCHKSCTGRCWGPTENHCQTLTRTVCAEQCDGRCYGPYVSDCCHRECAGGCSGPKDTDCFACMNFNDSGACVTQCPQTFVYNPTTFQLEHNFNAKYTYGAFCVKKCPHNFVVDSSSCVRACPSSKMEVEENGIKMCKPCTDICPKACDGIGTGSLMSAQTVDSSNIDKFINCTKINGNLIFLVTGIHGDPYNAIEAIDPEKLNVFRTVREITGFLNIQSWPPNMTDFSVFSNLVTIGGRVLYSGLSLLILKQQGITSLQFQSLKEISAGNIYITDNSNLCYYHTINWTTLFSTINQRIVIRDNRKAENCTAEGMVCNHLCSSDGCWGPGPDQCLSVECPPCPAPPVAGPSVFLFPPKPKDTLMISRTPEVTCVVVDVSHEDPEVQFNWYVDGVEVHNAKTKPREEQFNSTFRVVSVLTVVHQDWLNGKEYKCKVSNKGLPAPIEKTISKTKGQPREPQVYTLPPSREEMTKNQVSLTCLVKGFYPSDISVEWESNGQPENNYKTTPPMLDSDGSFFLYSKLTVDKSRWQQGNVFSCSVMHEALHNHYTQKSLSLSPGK

B1: HRG1β (ligand, UniProt Q02297-6 177-241, looked up)
chain: SHLVKCAEKEKTFCVNGGECFMVKDLSNPSRYLCKCPNEFTGDRCQNYVMASFYKHLGIEFMEAE
notes: Soluble ligand incubated with the coated traps; also called heregulin
As for B1, the Kd (usually the constant that tells how readily two partners part at equilibrium) in assay [1] was determined as 21.2 nM; in assay [2] it was 14.5 nM.
